From article PMC9818267, “Brain Natriuretic Peptide Protects Cardiomyocytes from Apoptosis and Stimulates Their Cell Cycle Re-Entry in Mouse Infarcted Hearts” (Cells, 2022) come the findings set out here.

Test [1] has as its target NPR-A or NPR-B (mouse (endogenous in cardiomyocytes)).
Test [2] shares this target. The source holds these as a separate data set.

As for “Brain Natriuretic Peptide, synthetic mouse BNP (1–45) peptide”, in test [1], the pPLB/PLB ratio (Western blot) in CMs isolated from the RZ of infarcted hearts after BNP injections, against saline (decreased) is -32%; the pPLB/PLB ratio (Western blot) in CMs isolated from the border zone (BZ) of infarcted hearts after BNP injections, against saline is 2.7 fold; the pPLB/PLB ratio (Western blot) in CMs isolated from unmanipulated adult hearts after BNP injections, against saline was determined as 1.5 fold; the pPLB/PLB ratio (Western blot) in CMs isolated from unmanipulated neonatal hearts after BNP injections, against saline came out at 3.5 fold. For the same substance, the pPLB/PLB ratio (Western blot) in adult CMs isolated from C57BL/6 hearts and stimulated in vitro with BNP for 2–3 h, against untreated cells in test [2] turned out to be 2.1 fold.
